# Results: patent publication US20250333441A1, “POLYPEPTIDE INHIBITORS AND USES THEREOF” (Neuracle Science Co., Ltd., priority 2021, published 2025)
# B1: LRRC4B (364-576): LRRC4B deletion construct, amino acids 364-576 of SEQ ID NO: 2 (SEQ ID NO: 61) (protein)
# chain: PVIVEPPTDLNVTEGMAAELKCRTGTSMTSVNWLTPNGTLMTHGSYRVRISVLHDGTLNFTNVTVQDTGQYTCMVTNSAGNTTASATLNVSAVDPVAAGGTGSGGGGPGGSGGVGGGSGGYTYFTTVTVETLETQPGEEALQPRGTEKEPPGPTTDGVWGGGRPGDAAGPASSSTTAPAPRSSRPTEKAFTVPITDVTENALKDLDDVMKTTK
# B2: LRRC4B (157-713): FLAG-tagged LRRC4B deletion construct, amino acids 157-713 of SEQ ID NO: 2 (SEQ ID NO: 53) (protein)
# chain: LSKLRELWLRNNPIESIPSYAFNRVPSLRRLDLGELKRLEYISEAAFEGLVNLRYLNLGMCNLKDIPNLTALVRLEELELSGNRLDLIRPGSFQGLTSLRKLWLMHAQVATIERNAFDDLKSLEELNLSHNNLMSLPHDLFTPLHRLERVHLNHNPWHCNCDVLWLSWWLKETVPSNTTCCARCHAPAGLKGRYIGELDQSHFTCYAPVIVEPPTDLNVTEGMAAELKCRTGTSMTSVNWLTPNGTLMTHGSYRVRISVLHDGTLNFTNVTVQDTGQYTCMVTNSAGNTTASATLNVSAVDPVAAGGTGSGGGGPGGSGGVGGGSGGYTYFTTVTVETLETQPGEEALQPRGTEKEPPGPTTDGVWGGGRPGDAAGPASSSTTAPAPRSSRPTEKAFTVPITDVTENALKDLDDVMKTTKIIIGCFVAITFMAAVMLVAFYKLRKQHQLHKHHGPTRTVEIINVEDELPAASAVSVAAAAAVASGGGVGGDSHLALPALERDHLNHHHYVAAAFKAHYSSNPSGGGCGGKGPPGLNSIHEPLLFKSGSKENVQETQI
# modifications: FLAG tag
# B3: LRRC4B (453-713): FLAG-tagged LRRC4B deletion construct, amino acids 453-713 of SEQ ID NO: 2 (SEQ ID NO: 56) (protein)
# chain: VSAVDPVAAGGTGSGGGGPGGSGGVGGGSGGYTYFTTVTVETLETQPGEEALQPRGTEKEPPGPTTDGVWGGGRPGDAAGPASSSTTAPAPRSSRPTEKAFTVPITDVTENALKDLDDVMKTTKIIIGCFVAITFMAAVMLVAFYKLRKQHQLHKHHGPTRTVEIINVEDELPAASAVSVAAAAAVASGGGVGGDSHLALPALERDHLNHHHYVAAAFKAHYSSNPSGGGCGGKGPPGLNSIHEPLLFKSGSKENVQETQI
# modifications: FLAG tag
# B4: LRRC4B (230-713): FLAG-tagged LRRC4B deletion construct, amino acids 230-713 of SEQ ID NO: 2 (SEQ ID NO: 54) (protein)
# chain: RLEELELSGNRLDLIRPGSFQGLTSLRKLWLMHAQVATIERNAFDDLKSLEELNLSHNNLMSLPHDLFTPLHRLERVHLNHNPWHCNCDVLWLSWWLKETVPSNTTCCARCHAPAGLKGRYIGELDQSHFTCYAPVIVEPPTDLNVTEGMAAELKCRTGTSMTSVNWLTPNGTLMTHGSYRVRISVLHDGTLNFTNVTVQDTGQYTCMVTNSAGNTTASATLNVSAVDPVAAGGTGSGGGGPGGSGGVGGGSGGYTYFTTVTVETLETQPGEEALQPRGTEKEPPGPTTDGVWGGGRPGDAAGPASSSTTAPAPRSSRPTEKAFTVPITDVTENALKDLDDVMKTTKIIIGCFVAITFMAAVMLVAFYKLRKQHQLHKHHGPTRTVEIINVEDELPAASAVSVAAAAAVASGGGVGGDSHLALPALERDHLNHHHYVAAAFKAHYSSNPSGGGCGGKGPPGLNSIHEPLLFKSGSKENVQETQI
# modifications: FLAG tag
# B5: LRRC4B (36-713): FLAG-tagged LRRC4B deletion construct, amino acids 36-713 of SEQ ID NO: 2 (SEQ ID NO: 52) (protein)
# chain: AGGGGVAVTSAAGGGSPPATSCPVACSCSNQASRVICTRRDLAEVPASIPVNTRYLNLQENGIQVIRTDTFKHLRHLEILQLSKNLVRKIEVGAFNGLPSLNTLELFDNRLTTVPTQAFEYLSKLRELWLRNNPIESIPSYAFNRVPSLRRLDLGELKRLEYISEAAFEGLVNLRYLNLGMCNLKDIPNLTALVRLEELELSGNRLDLIRPGSFQGLTSLRKLWLMHAQVATIERNAFDDLKSLEELNLSHNNLMSLPHDLFTPLHRLERVHLNHNPWHCNCDVLWLSWWLKETVPSNTTCCARCHAPAGLKGRYIGELDQSHFTCYAPVIVEPPTDLNVTEGMAAELKCRTGTSMTSVNWLTPNGTLMTHGSYRVRISVLHDGTLNFTNVTVQDTGQYTCMVTNSAGNTTASATLNVSAVDPVAAGGTGSGGGGPGGSGGVGGGSGGYTYFTTVTVETLETQPGEEALQPRGTEKEPPGPTTDGVWGGGRPGDAAGPASSSTTAPAPRSSRPTEKAFTVPITDVTENALKDLDDVMKTTKIIIGCFVAITFMAAVMLVAFYKLRKQHQLHKHHGPTRTVEIINVEDELPAASAVSVAAAAAVASGGGVGGDSHLALPALERDHLNHHHYVAAAFKAHYSSNPSGGGCGGKGPPGLNSIHEPLLFKSGSKENVQETQI
# modifications: FLAG tag
# B6: LRRC4B (36-576): full-length ectodomain of LRRC4B protein, amino acids 36-576 of SEQ ID NO: 2 (SEQ ID NO: 5) (protein)
# chain: AGGGGVAVTSAAGGGSPPATSCPVACSCSNQASRVICTRRDLAEVPASIPVNTRYLNLQENGIQVIRTDTFKHLRHLEILQLSKNLVRKIEVGAFNGLPSLNTLELFDNRLTTVPTQAFEYLSKLRELWLRNNPIESIPSYAFNRVPSLRRLDLGELKRLEYISEAAFEGLVNLRYLNLGMCNLKDIPNLTALVRLEELELSGNRLDLIRPGSFQGLTSLRKLWLMHAQVATIERNAFDDLKSLEELNLSHNNLMSLPHDLFTPLHRLERVHLNHNPWHCNCDVLWLSWWLKETVPSNTTCCARCHAPAGLKGRYIGELDQSHFTCYAPVIVEPPTDLNVTEGMAAELKCRTGTSMTSVNWLTPNGTLMTHGSYRVRISVLHDGTLNFTNVTVQDTGQYTCMVTNSAGNTTASATLNVSAVDPVAAGGTGSGGGGPGGSGGVGGGSGGYTYFTTVTVETLETQPGEEALQPRGTEKEPPGPTTDGVWGGGRPGDAAGPASSSTTAPAPRSSRPTEKAFTVPITDVTENALKDLDDVMKTTK
# B7: LRRC4B (364-713): FLAG-tagged LRRC4B deletion construct, amino acids 364-713 of SEQ ID NO: 2 (SEQ ID NO: 55) (protein)
# chain: PVIVEPPTDLNVTEGMAAELKCRTGTSMTSVNWLTPNGTLMTHGSYRVRISVLHDGTLNFTNVTVQDTGQYTCMVTNSAGNTTASATLNVSAVDPVAAGGTGSGGGGPGGSGGVGGGSGGYTYFTTVTVETLETQPGEEALQPRGTEKEPPGPTTDGVWGGGRPGDAAGPASSSTTAPAPRSSRPTEKAFTVPITDVTENALKDLDDVMKTTKIIIGCFVAITFMAAVMLVAFYKLRKQHQLHKHHGPTRTVEIINVEDELPAASAVSVAAAAAVASGGGVGGDSHLALPALERDHLNHHHYVAAAFKAHYSSNPSGGGCGGKGPPGLNSIHEPLLFKSGSKENVQETQI
# modifications: FLAG tag
# Target: FAM19A5 protein (Homo sapiens, UniProt Q7Z5A7)
# Sequence (Q7Z5A7 44-132): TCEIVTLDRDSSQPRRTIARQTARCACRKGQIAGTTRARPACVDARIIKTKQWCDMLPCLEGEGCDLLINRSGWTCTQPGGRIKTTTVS
# Assay: Co-immunoprecipitation of FLAG-tagged LRRC4 family constructs with recombinant FAM19A5 in HEK293 cells
# Format: binding
# Conditions: HEK293 cells expressing FLAG-tagged construct, recombinant FAM19A5 protein (1 μM) 30 minutes; anti-FLAG immunoprecipitation
# Description: To better understand the interaction between FAM19A5 and members of the LRRC4 protein family, HEK293 cells were modified to express a FLAG-tagged member of the LRRC4 protein family, i.e., LRRC4C protein, LRRC4 protein, or LRRC4B protein. Then, the HEK293 cells or primary cortical neurons were treated with recombinant FAM19A5 protein (1 μM) for 30 minutes, and the binding between FAM19A5 protein and the different members of the LRRC4 protein family was assessed using both co-immunoprecipitation and immunofluorescence assays.
# For the co-immunoprecipitation assay, cell lysates from the different FAM19A5-treated HEK293 cells were collected and immunoprecipitated with an anti-FLAG antibody, anti-FAM19A5 (1-65) antibody, or a human IgG antibody (control). Immunoprecipitated proteins were immunoblotted with anti-FLAG and anti-FAM19A5 (3-2) antibodies. For the immunofluorescence assay, the HEK293 cells treated with the recombinant FAM19A5 protein were immunostained with anti-FAM19A5 (3-2) (to detect FAM19A5 protein expression) and anti-FLAG antibodies (to detect member of the LRRC4 protein family). The primary cortical neurons treated with the recombinant FAM19A5 protein were immunostained with anti-FAM19A5 (3-2) and anti-LRRC4B antibodies. The nuclei were stained with Hoechst33342 (blue).
# To determine the specific motif or domain of the LRRC4B protein that is responsible for the binding to a FAM19A5 protein, various FLAG-tagged LRRC4B deletion constructs were generated (see Table 6 below). HEK293 cells were transfected with the different deletion constructs and then treated with recombinant FAM19A5 protein as described in Example 1. Then, the cell lysates from the different HEK293 cells were immunoprecipitated with the anti-FLAG antibody. The immunoprecipitated proteins were immunoblotted with anti-FLAG and anti-FAM19A5 (3-2) antibodies.
# As described in Example 2, all members of the LRRC4 protein family were capable of binding to FAM19A5 protein to varying degrees. Therefore, to compare the bindings domains, the amino acid sequences of the LRRC4B, LRRC4, and LRRC4C proteins were aligned. […] Therefore, to assess whether the corresponding positions of LRRC4 and LRRC4C were important in the binding of these proteins to FAM19A5 protein, cDNAs encoding either (i) LRRC4C protein fragment (amino acids 354-527 of SEQ ID NO: 3; SEQ ID NO: 66) or (ii) LRRC4 protein fragment (amino acids 353-527 of SEQ ID NO: 1; SEQ ID NO: 67) were constructed (see Table 7). HEK293 cells were transfected to express either of the protein fragments and then treated with recombinant FAM19A5 protein as described in Example 1. Then, the cell lysates from the different HEK293 cells were immunoprecipitated with the anti-FLAG antibody. The immunoprecipitated proteins were immunoblotted with anti-FLAG and anti-FAM19A5 (3-2) antibodies.
row,binding to FAM19A5 protein (co-immunoprecipitation),Molecule
1,able to bind to the FAM19A5 protein,B1
2,able to bind to the FAM19A5 protein,B2
3,able to bind to the FAM19A5 protein,B3
4,able to bind to the FAM19A5 protein,B4
5,able to bind to the FAM19A5 protein,B5
6,able to bind to the FAM19A5 protein,B6
7,able to bind to the FAM19A5 protein,B7
